The values below come from publication PMC2801614, “Promoter Recognition by a Complex of Spx and the C-Terminal Domain of the RNA Polymerase α Subunit” (PLoS ONE, 2010).

In data set [1] the target is T1, alphaCTD (C-terminal domain of RNA polymerase alpha subunit) (Bacillus subtilis, UniProt P20429 225-314).
T1 sequence: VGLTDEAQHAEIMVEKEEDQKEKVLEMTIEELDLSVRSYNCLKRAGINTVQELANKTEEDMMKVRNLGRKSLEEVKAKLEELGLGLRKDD
Kind of data set: EMSA; 5 uM alphaCTD; EMSA: 20 mM Tris-HCl pH 7.8, 50 mM NaCl, 5 mM MgCl2, 10% glycerol, 5 uM each protein unless stated, room temperature (10 min preincubation, 15 min with probe). The note with it: protein: recombinant; tags: tag-free after self-cleavable intein/chitin purification; label: 32P-dA at 3' end of the S42 strand (Klenow fill-in); blunt after Klenow fill-in of S42 (35-mer).

In a further data set the target is T2, Spx wild-type (Bacillus subtilis, UniProt O31602 1-131).
T2 sequence: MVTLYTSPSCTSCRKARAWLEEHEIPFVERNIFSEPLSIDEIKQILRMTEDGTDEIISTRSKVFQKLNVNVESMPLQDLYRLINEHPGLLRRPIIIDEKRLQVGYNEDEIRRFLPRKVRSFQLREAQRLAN
Kind of data set: EMSA; 5 uM Spx alone; EMSA: 20 mM Tris-HCl pH 7.8, 50 mM NaCl, 5 mM MgCl2, 10% glycerol, 5 uM each protein unless stated, room temperature (10 min preincubation, 15 min with probe). The note with it: protein: recombinant; tags: tag-free after self-cleavable intein/chitin purification; label: 32P-dA at 3' end of the S42 strand (Klenow fill-in); blunt after Klenow fill-in of S42 (35-mer).

The target in data set [2] is T3, alphaCTD (C-terminal domain of RNA polymerase alpha subunit);SpxR60E (Bacillus subtilis;Bacillus subtilis, UniProt P20429;O31602 225-314;1-131, |R60E).
T3 sequence 1: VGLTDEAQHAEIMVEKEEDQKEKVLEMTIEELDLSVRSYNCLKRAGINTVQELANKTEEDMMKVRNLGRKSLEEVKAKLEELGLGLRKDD
T3 sequence 2: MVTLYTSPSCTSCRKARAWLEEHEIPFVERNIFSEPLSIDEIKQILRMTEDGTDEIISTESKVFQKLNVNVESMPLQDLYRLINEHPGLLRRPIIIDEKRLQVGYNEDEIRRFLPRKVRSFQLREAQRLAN
The data set is described as follows: EMSA; 5 uM each; SpxR60E also prevents the alphaCTD-DNA complex; EMSA: 20 mM Tris-HCl pH 7.8, 50 mM NaCl, 5 mM MgCl2, 10% glycerol, 5 uM each protein unless stated, room temperature (10 min preincubation, 15 min with probe). As to conditions: protein: recombinant;recombinant; tags: tag-free after self-cleavable intein/chitin purification;intein (pTYB4), cleaved; cloned via NcoI/SmaI; copies: 1;1; label: 32P-dA at 3' end of the S42 strand (Klenow fill-in); blunt after Klenow fill-in of S42 (35-mer).

In data set [3] the target is T1, alphaCTD (C-terminal domain of RNA …). The data set is described as follows: EMSA; EMSA: 20 mM Tris-HCl pH 7.8, 50 mM NaCl, 5 mM MgCl2, 10% glycerol, 5 uM each protein unless stated, room temperature (10 min preincubation, 15 min with probe). As to conditions: protein: recombinant; tags: tag-free after self-cleavable intein/chitin purification; label: 32P-dA at 3' end of the S44 strand (Klenow fill-in); blunt after Klenow fill-in of S44 (35-mer).

For another data set, the target named is T4, wild-type Spx protein (Bacillus subtilis, UniProt O31602 1-131).
T4 construct: Spx of Bacillus subtilis; Made with the self-cleavable intein system (New England Biolabs); also called oxidized Spx; source: E. coli ER2566 (pMMN470), purified (chitin column, High S column)
T4 sequence (looked up): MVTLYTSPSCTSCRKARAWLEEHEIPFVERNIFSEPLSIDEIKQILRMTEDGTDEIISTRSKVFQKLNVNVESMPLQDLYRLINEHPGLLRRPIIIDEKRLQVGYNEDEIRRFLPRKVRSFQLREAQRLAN
Kind of data set: native gel or EMSA; supershift of the αCTD-trxB promoter (-56 to -21) complex; 5 µM Spx and 5 µM αCTD preincubated 10 min at room temperature in 20 mM Tris-HCl pH 7.8, 50 mM NaCl, 5 mM MgCl2, 10% glycerol, then 32P-labelled probe 15 min; 6% native polyacrylamide gel in TGE buffer; no DTT. The note with it: both partners purified.

B1: trxB promoter (-56 to -21) (dsDNA)
DNA 1: TAATCGTGTTGAGCAAAAAAATAGCGTATCACCATG
DNA 2: CATGGTGATACGCTATTTTTTTGCTCAACACGATTA
Consider B1, for which the binding result in data set [1] is on record as “binds”; in the data set with Spx wild-type, “no binding”; in data set [2] it was “no binding”.

B2: trxB (-56 to -21) G-44A G-33A (dsDNA)
DNA 1: TAATCGTGTTGAACAAAAAAATAACGTATCACCATG
DNA 2: CATGGTGATACGTTATTTTTTTGTTCAACACGATTA
As for B2, the binding result in data set [3] is “binds”.

B3: αCTD (residues 225–314) (domain or fragment, Bacillus subtilis, UniProt P20429 225-314, looked up)
chain: VGLTDEAQHAEIMVEKEEDQKEKVLEMTIEELDLSVRSYNCLKRAGINTVQELANKTEEDMMKVRNLGRKSLEEVKAKLEELGLGLRKDD
notes: RNA polymerase α subunit (RpoA) of Bacillus subtilis, C-terminal domain, residues 225-314; Made with the self-cleavable intein system (New England Biolabs); also called rpoA-CTD; source: E. coli BL21/pLysS (pSN37), purified (chitin column, High Q column)
Turning to B3, the binding result in the data set with wild-type Spx protein was “binds”.
